{"source": "the supplement of paper PMC11316812", "key": {"MCF7": {"test_system": "MCF7", "assay": "percentage of EdU-negative (G0-arrested) nuclei per well, 72 h; higher = more G0 arrest", "details": "reference: sequence is the full UniProt precursor, the tested protein was the secreted form or ectodomain"}, "hTERT-HMEC": {"test_system": "hTERT-HMEC", "assay": "percentage of EdU-negative (G0-arrested) nuclei per well, 72 h; higher = more G0 arrest", "details": "reference: sequence is the full UniProt precursor, the tested protein was the secreted form or ectodomain"}, "[1]": {"details": "protein concentration 0.0225 µM"}, "[2]": {"details": "protein concentration 0.018725 µM"}, "[3]": {"details": "protein concentration 0.18725 µM"}, "[4]": {"details": "protein concentration 0.02382 µM"}, "[5]": {"details": "protein concentration 0.03125 µM"}, "[6]": {"details": "protein concentration 0.2382 µM"}, "[7]": {"details": "protein concentration 0.3125 µM"}}, "note": "± gives the standard deviation of the averaged measurements.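 Note: secreted proteins added to cultured cells, EdU pulse at the end, nuclei found by Hoechst imaging, EdU status from nuclear versus surrounding ring intensity ratio, PBS as neutral control.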", "data": [{"sequence": "MQPTGREGSRALSRRYLRRLLLLLLLLLLRQPVTRAETTPGAPRALSTLGSPSLFTTPGVPSALTTPGLTTPGTPKTLDLRGRAQALMRSFPLVDGHNDLPQVLRQRYKNVLQDVNLRNFSHGQTSLDRLRDGLVGAQFWSASVSCQSQDQTAVRLALEQIDLIHRMCASYSELELVTSAEGLNSSQKLACLIGVEGGHSLDSSLSVLRSFYVLGVRYLTLTFTCSTPWAESSTKFRHHMYTNVSGLTSFGEKVVEELNRLGMMIDLSYASDTLIRRVLEVSQAPVIFSHSAARAVCDNLLNVPDDILQLLKKNGGIVMVTLSMGVLQCNLLANVSTVADHFDHIRAVIGSEFIGIGGNYDGTGRFPQGLEDVSTYPVLIEELLSRSWSEEELQGVLRGNLLRVFRQVEKVREESRAQSPVEAEFPYGQLSTSCHSHLVPQNGHQATHLEVTKQPTNRVPWRSSNASPYLVPGLVAAATIPTFTQWLC [Q9H4B8]", "values": [{"measurement": "percentage of EdU-negative", "setting": "MCF7; [1]", "value": "26.5 ± 1.8", "unit": "%"}, {"measurement": "percentage of EdU-negative", "setting": "MCF7; protein concentration 0.225 µM", "value": "27.6 ± 3", "unit": "%"}, {"measurement": "percentage of EdU-negative", "setting": "hTERT-HMEC; [1]", "value": "5.33 ± 1.2", "unit": "%"}, {"measurement": "percentage of EdU-negative", "setting": "hTERT-HMEC; protein concentration 0.225 µM", "value": "5.49 ± 1.1", "unit": "%"}]}, {"sequence": "MQQPFNYPYPQIYWVDSSASSPWAPPGTVLPCPTSVPRRPGQRRPPPPPPPPPLPPPPPPPPLPPLPLPPLKKRGNHSTGLCLLVMFFMVLVALVGLGLGMFQLFHLQKELAELRESTSQMHTASSLEKQIGHPSPPPEKKELRKVAHLTGKSNSRSMPLEWEDTYGIVLLSGVKYKKGGLVINETGLYFVYSKVYFRGQSCNNLPLSHKVYMRNSKYPQDLVMMEGKMMSYCTTGQMWARSSYLGAVFNLTSADHLYVNVSELSLVNFEESQTFFGLYKL", "values": [{"measurement": "percentage of EdU-negative", "setting": "MCF7; [1]", "value": "25.2 ± 0.97", "unit": "%"}, {"measurement": "percentage of EdU-negative", "setting": "MCF7; protein concentration 0.225 µM", "value": "29 ± 2.4", "unit": "%"}, {"measurement": "percentage of EdU-negative", "setting": "hTERT-HMEC; [1]", "value": "4.44 ± 0.26", "unit": "%"}, {"measurement": "percentage of EdU-negative", "setting": "hTERT-HMEC; protein concentration 0.225 µM", "value": "7.46 ± 2.2", "unit": "%"}]}, {"sequence": "MQRGAALCLRLWLCLGLLDGLVSGYSMTPPTLNITEESHVIDTGDSLSISCRGQHPLEWAWPGAQEAPATGDKDSEDTGVVRDCEGTDARPYCKVLLLHEVHANDTGSYVCYYKYIKARIEGTTAASSYVFVRDFEQPFINKPDTLLVNRKDAMWVPCLVSIPGLNVTLRSQSSVLWPDGQEVVWDDRRGMLVSTPLLHDALYLQCETTWGDQDFLSNPFLVHITGNELYDIQLLPRKSLELLVGEKLVLNCTVWAEFNSGVTFDWDYPGKQAERGKWVPERRSQQTHTELSSILTIHNVSQHDLGSYVCKANNGIQRFRESTEVIVHENPFISVEWLKGPILEATAGDELVKLPVKLAAYPPPEFQWYKDGKALSGRHSPHALVLKEVTEASTGTYTLALWNSAAGLRRNISLELVVNVPPQIHEKEASSPSIYSRHSRQALTCTAYGVPLPLSIQWHWRPWTPCKMFAQRSLRRRQQQDLMPQCRDWRAVTTQDAVNPIESLDTWTEFVEGKNKTVSKLVIQNANVSAMYKCVVSNKVGQDERLIYFYVTTIPDGFTIESKPSEELLEGQPVLLSCQADSYKYEHLRWYRLNLSTLHDAHGNPLLLDCKNVHLFATPLAASLEEVAPGARHATLSLSIPRVAPEHEGHYVCEVQDRRSHDKHCHKKYLSVQALEAPRLTQNLTDLLVNVSDSLEMQCLVAGAHAPSIVWYKDERLLEEKSGVDLADSNQKLSIQRVREEDAGRYLCSVCNAKGCVNSSASVAVEGSEDKGSMEIVILVGTGVIAVFFWVLLLLIFCNMRRPAHADIKTGYLSIIMDPGEVPLEEQCEYLSYDASQWEFPRERLHLGRVLGYGAFGKVVEASAFGIHKGSSCDTVAVKMLKEGATASEHRALMSELKILIHIGNHLNVVNLLGACTKPQGPLMVIVEFCKYGNLSNFLRAKRDAFSPCAEKSPEQRGRFRAMVELARLDRRRPGSSDRVLFARFSKTEGGARRASPDQEAEDLWLSPLTMEDLVCYSFQVARGMEFLASRKCIHRDLAARNILLSESDVVKICDFGLARDIYKDPDYVRKGSARLPLKWMAPESIFDKVYTTQSDVWSFGVLLWEIFSLGASPYPGVQINEEFCQRLRDGTRMRAPELATPAIRRIMLNCWSGDPKARPAFSELVEILGDLLQGRGLQEEEEVCMAPRSSQSSEEGSFSQVSTMALHIAQADAEDSPPSLQRHSLAARYYNWVSFPGCLARGAETRGSSRMKTFEEFPMTPTTYKGSVDNQTDSGMVLASEEFEQIESRHRQESGFSCKGPGQNVAVTRAHPDSQGRRRRPERGARGGQVFYNSEYGELSEPSEEDHCSPSARVTFFTDNSY", "values": [{"measurement": "percentage of EdU-negative", "setting": "MCF7; [2]", "value": "25.2 ± 1.4", "unit": "%"}, {"measurement": "percentage of EdU-negative", "setting": "MCF7; [3]", "value": "25.66 ± 0.24", "unit": "%"}, {"measurement": "percentage of EdU-negative", "setting": "hTERT-HMEC; [2]", "value": "5.19 ± 0.73", "unit": "%"}, {"measurement": "percentage of EdU-negative", "setting": "hTERT-HMEC; [3]", "value": "6.63 ± 1.2", "unit": "%"}]}, {"sequence": "MQRLCVYVLIFALALAAFSEASWKPRSQQPDAPLGTGANRDLELPWLEQQGPASHHRRQLGPQGPPHLVADPSKKQGPWLEEEEEAYGWMDFGRRSAEDEN", "values": [{"measurement": "percentage of EdU-negative", "setting": "MCF7; [4]", "value": "24.94 ± 0.082", "unit": "%"}, {"measurement": "percentage of EdU-negative", "setting": "MCF7; [5]", "value": "29.3 ± 0.76", "unit": "%"}, {"measurement": "percentage of EdU-negative", "setting": "MCF7; [6]", "value": "27.1 ± 1.1", "unit": "%"}, {"measurement": "percentage of EdU-negative", "setting": "MCF7; [7]", "value": "26.7 ± 1.6", "unit": "%"}, {"measurement": "percentage of EdU-negative", "setting": "hTERT-HMEC; [4]", "value": "4.78 ± 0.41", "unit": "%"}, {"measurement": "percentage of EdU-negative", "setting": "hTERT-HMEC; [5]", "value": "4.9 ± 0.48", "unit": "%"}, {"measurement": "percentage of EdU-negative", "setting": "hTERT-HMEC; [6]", "value": "7.18 ± 0.61", "unit": "%"}, {"measurement": "percentage of EdU-negative", "setting": "hTERT-HMEC; [7]", "value": "10.5 ± 2", "unit": "%"}]}, {"sequence": "MQRLRWLRDWKSSGRGLTAAKEPGARSSPLQAMRILQLILLALATGLVGGETRIIKGFECKPHSQPWQAALFEKTRLLCGATLIAPRWLLTAAHCLKPRYIVHLGQHNLQKEEGCEQTRTATESFPHPGFNNSLPNKDHRNDIMLVKMASPVSITWAVRPLTLSSRCVTAGTSCLISGWGSTSSPQLRLPHTLRCANITIIEHQKCENAYPGNITDTMVCASVQEGGKDSCQGDSGGPLVCNQSLQGIISWGQDPCAITRKPGVYTKVCKYVDWIQETMKNN [Q9UBX7]", "values": [{"measurement": "percentage of EdU-negative", "setting": "MCF7; [1]", "value": "27.509 ± 0.019", "unit": "%"}, {"measurement": "percentage of EdU-negative", "setting": "MCF7; protein concentration 0.225 µM", "value": "25.5 ± 1.5", "unit": "%"}, {"measurement": "percentage of EdU-negative", "setting": "hTERT-HMEC; [1]", "value": "5.31 ± 0.64", "unit": "%"}, {"measurement": "percentage of EdU-negative", "setting": "hTERT-HMEC; protein concentration 0.225 µM", "value": "6.15 ± 0.74", "unit": "%"}]}]}
